Data reported in the DeepSol protein solubility set.

assay: soluble on expression in E. coli; label from the status in PepcDB or PDB records

| Sequence | soluble on expression in E. coli |
| --- | --- |
| SNAMNNIRLLNQNDLDSYIELMKFGHHNYEWDRYYLENVSIDRLKTILSNHTDYWNIFGAFEDDELVATCTLKQMNYVGKCHKAILENNFVKNNDEIVNRELINHIIQYAKEQNIETLMIAIASNNISAKVFFSSIGFENLAFEKNASKIGNEYFDENWLIYSTTESSD | soluble |
| SNAMNYFELFGLPIQFELDGSLLSSQFRALQKRFHPDNFATASERDRLMAVQQAAQINDAYQTLKDPLRRAEYLLSLQGIEMNAEQQTLQDPMFLMEQMELREELESVTACADPEAALVAFDTKVTAMQRHYLAQLQGQLAQSEWLAAADQIRKLKFIAKLKNEVERVEDQLLG | soluble |
| SNAMTTPIRVVVWNEFRHEKKDEQVRAIYPEGMHTVIASYLAEAGFDAATAVLDEPEHGLTDEVLDRCDVLVWWGHIAHDEVKDEVVERVHRRVLEGMGLIVLHSGHFSKIFKKLMGTTCNLKWREADEKERLWVVAPGHPIVEGIGPYIELEQEEMYGEFFDIPEPDETIFISWFEGGEVFRSGCTFTRGKGKIFYFRPGHETYPTYHHPDVLKVIANAVRWAAPVNRGEIVFGNVKPLEPIKAKQGGVTQ | soluble |
| SNANCKKIGEDSKIIIRQITDNDLELLMAWRSNPLIYKFFYIQKEPLKWEEHYSWWMSRENRVDWIILLRENNTIRKVGSVNVSQLNTDNPEIGILIGEFFLWGKHIGRHSVSLVLKWLKNIGYKKAHARILENNIRSIKLFESLGFKKTKKGRENEWIYEVNL | soluble |
| SNQEKLQRTMIHFNNPEVQAFLAVNTFTITGHGETKQLTEMLRSVLNQLAAVSLTSLRRLAEALPKQSVDGKAPLATGEDDDDDEVPGIMENFDEASKNEAN | soluble |
| SNRIYTLFLQRNPDFKGGVSIAGHSLGSLILFDILTNQKDSLGDIDSEKDSLNIVMDQGDTPTLEEDLKKLQLSEFFDIFEKEKVDKEALALCTDRDLQEIGIPLGPRKKILNYFSTRKNSMGIKRPAPQPASGANIPKESEFCSSSNTRNGDYLDVGIGQVSVKYPRLIYKPEIFFAFGSPIGMFLTVRGLKRIDPNYRFPTCKGFFNIYHPFDPVAYRIEPMVVPGVEFEPMLIPHHKGRKRMHLELREGLTRMSMDLKNNLLGSLRMAWKSFTRAPYPALQASETPEETEAEPESTSEKPSDVNTEETSVAVKEEVLPINVGMLNGGQRIDYVLQEKPIESFNEYLFALQSHLCYWESEDTVLLVLKEIYQTQGIFLDQPLQ | soluble |
| SNTPRLSLRTIEPTDYPELAELMDLVFPDVGGSWPRLTIMDLIHQFPDGQICIEDNGKIVGAALTIKVDYNRFSLPHLYTDIITENNVIQNQVTGDAMYGLDVFVHPDYRGLRLGRRLYDARKELCRSKNFKAILAGGRIPNYHQYADELSVAEYIDKVKRRELHDPILSFQLANDFDVKRIMRGYLP | not soluble |
| SPAPAATYERVVYKNPSEYHYMKVCLEFQDCGVGLNAAQFKQLLISAVKDLFGEVDAALPLDILTYEEKTLSAILRICSSGLVKLWSSLTLLGSYKGKKCAFRVIQVSPFLLALSGNSRELVLD | soluble |
| SPNSMSALKAVFQYIDENQDRYVKKLAEWVAIQSVSAWPEKRGEIRRMMEVAAADVQRLGGSVELVDIGKQKLPDGSEIPLPPILLGKLGSDPQKKTVCIYGHLDVQPAALEDGWDSEPFTLVEREGKLYGRGSTDDKGPVAGWMNALEAYQKTGQEIPVNLRFCLEGMEESGSEGLDELIFAQKDKFFKDVDYVCISDNYWLGKNKPCITYGLRGICYFFIEVECSDKDLHSGVYGGSVHEAMTDLISLMGCLVDKKGKILIPGINDAVAPVTDEEHALYDHIDFDMEEFAKDVGAETLLHSCKKDILMHRWRYPSLSLHGIEGAFSGSGAKTVIPRKVVGKFSIRLVPDMIPEVVSEQVSSYLSKKFAELQSPNKFKVYMGHGGKPWVSDFNHPHYQAGRRALKTVFGVEPDLTREGGSIPVTLTFQEATGKNVMLLPVGSADDGAHSQNEKLNRLNYIEGTKMLAAYLYEVSQLKN | soluble |
| SPSPWGWFAVTACGAQRNNFEEPVALQEMDTSNGVLLPFYDPDSSIVYLCGKGDSSIRYFEITDEPPFVHYLNTFSSKEPQRGMGFMPKRGLDVSKCEIARFYKLHERKCEPIIMTVPRKSDLFQDDLYPDTPGPEPALEADEWLSGQDAEPVLISLRDGYVPPKHRELRVTKRNILDVRPPSGPRRSQSASDAPLSQHTLETLLEEIKALRERVQAQEQRITALENMLCELVDGTD | soluble |
| SPTVEACGYSDRIIQITRGDSTITSQDVANAIVAYGVWPHYLSSKDASAIDKPSQPDTSSNRFYTLRSVTWSSSSKGWWWKLPDALKDMGIFGENMFYHYLGRSGYTIHVQCNASKFHQGTLIVALIPEHQIASALHGNVNVGYNYTHPGETGREVKAETRLNPDLQPTEEYWLNFDGTLLGNITIFPHQFINLRSNNSATIIAPYVNAVPMDSMRSHNNWSLVIIPICPLETSSAINTIPITISISPMCAEFSGARAKRQ | soluble |
| SPVSKCPKKSESLWKGWDRKAQRNGLRSQVYAVNGDYYVGEWEDNVKHGKGTQVWKKKGAIYEGDWKFGKRDGYGTLSLPDQQTGKCRRVYSGWWKGDKKSGYGIQFFGPKEYYEGDWCGSQRSGWGRMYYSNGDIYEGQWENDKPNGEGMLRLKNGNRYEGCWERGMKNGAGRFFHLDHGQLFEGFWVDNMAKCGTMIDFGRDEAPEPTQFPIPEVKILDPDGVLAEALAMFRKTEEGD | soluble |
| SQFKWSDFRILDRVSIGHGGRADELVFEAIVQVPDSPLFNQGVVLRKLNTTRAQRRGRRAIEVFKKLVRRRLLYHSYSMQVHGYITNNLSDDQYSFTLVHGCHGSFSIRHWLQQSDWIPTLEATLALDEESFRRVGDDTTGGPAVSRQLRLIRTLMRDILIGVNYLHSHGLAHTELRLENVHISPVDRHIKVGILGNAADFNGDVPSTSNAYSTMDRRQMMIAFDMRCVGFMMAKMVLQELMDPLIFAKLKSFLAKGNDPSSLREFFVTTLNTNSESGNTGVQILDRNWGAGWHLLSLLIATRPSERISCLDALKHPFLCGPRWRVAPSMDIIRWGLGSTAVKISEEYIYRMPQRQRLAHFIGLMEMLNPYPKPNCWLELLPGRWRLLYSTGKHIGLTLRQPSTRALIGNVHLTITRASESINNTSLSFTSDIRFTAITSKDWPHNKIGAAGKLQTLSQFRLIAGKRLYLKEEKKNIGKFSMGEPDAEEGLAEKLETEKWKKVVPFKEFPSSLPVAKLVSGEIEVTMNMNDHIDSPGSVIGEVRKQIPPEMFDLSKLVCGTYIDSRLLVLRCVNGSALLFTRSSLDHKSM | soluble |
| SQLTHINAAGEAHMVDVSAKAETVREARAEAFVTMRSETLAMIIDGRHHKGDVFATARIAGIQAAKRTWDLIPLCHPLMLSKVEVNLQAEPEHNRVRIETLCRLTGKTGVEMEALTAASVAALTIYDMCKAVQKDMVIGPVRLLAKSGGKSGDFKVEADD | not soluble |
| SQSPNPNNPAEYCSTIPPLQQAQASGALSSPPPTVMVPVGV | soluble |
| SQWIMHKTSTPEFCASCHSMSYPQQEWEGSSHFANAKGVRAQCSDCHIPKEGWHYVKAKFIALKDLWYEAQGKIENKEKYEAHRAEMAQRVWKDMKANDSETCRSCHSFDAMELSKQTKLAKQTHTEAQTNGQTCIDCHKGIVHFLPEVHGDQNTQKSSAVQGGTLSDGSAIFATEMVKATNDKGNEVRLMPYAELMQWKVDGDQIQGTLHGWQQVGAEAVVYQELGKRITLALMDEDARNHVQVLKIVHDAVTDSDWKEISVAVNVAKEKMTSDLTTLNQYGNQLNQTQCSGCHAAIGADHYTA | not soluble |
| SRGHDATSWINRCLDCFSEGLSFRRQSKRPKMKVHYGDKAKDYDYNARKKQQSEEIDRILDKLKKSGYNSLTTEEKKSLFDASKK | not soluble |
| SSAEAGGGIRKRHRTKFTAEQKERMLALAERIGWRIQRQDDEVIQRFCQETGVPRQVLKVWLHNNKH | soluble |
| SSCTIEKILTDAKTLLERLREHDAAAESLVDQSAALHRRVAAMREAGTALPDQYQEDASDMKDMSKYKPHILLSQENTQIRDLQQENRELWISLEEHQDALELIMSKYRKQMLQLMVAKKAVDAEPVLKAHQSHSAEIESQIDRICEMGEVMRKAVQVDDDQFCKIQEKLAQLELENKELRELLSISSESLQARKENSMDTASQAIK | soluble |
| SSEELLKQALQQAQQLLQQAQELAKKGGGEELLKQALQQAQQLLQQAQELAKKGGGGEELLKQALQQAQQLLQQAQELAKKGGGEELLKQALQQAQQLLQQAQELAKK | soluble |
| SSPGKPPRLVGGPMDASVEEEGVRRALDFAVGEYNKASNDMYHSRACQVVRARKQIVAGVNYFLDVELCRTTCTKTQPNLDNCPFHDQPHLKRKAFCSFQIYAVPWQGTMTLSKSTCQDA | soluble |
| SSRAKRIMKEIQAVKDDPAAHITLEFVSESDIHHLKGTFLGPPGTPYEGGKFVVDIEVPMEYPFKPPKMQFDTKVYHPNISSVTGAICLDILRNAWSPVITLKSALISLQALLQSPEPNDPQDAEVAQHYLRDRESFNKTAALWTRLYASETSNGQKGNVEESDLYGIDHDLIDEFESQGFEKDKIVEVLRRLGVKSLDPNDNNTANRIIEELLK | soluble |
| SSSSSDGGLFRSRPAHSLPPGEDGRVEPYVDFAEFYRLWSVDHGEQSVMTAP | soluble |
| SSTFEDADTEETVTCLQMTIYHPGQQSGIFKSIRFCSKEKFPSIEVVKFGRNSNMCQYTFQDKQVSRIQFVLQPFKQFNSSVLSFEIKNMSKKTSLMVDNQELGYLNKMDLPYKCMLRFGEYQFLLQKEDGESVESFETQFIMSSRPLLQENNWPTQNPIPEDGMYSSYFTHRSSPSEMDENEL | soluble |
| STERRRDELSEEINNLREKVMKQSEENNNLQSQVQKLTEENTTLREQVEPTPEDEDDDIELRGAAAAAAPPPPIEEECPEDLPEKFDGNPDMLAPFMAQCQIFMEKSTRDFSVDRVRVCFVTSMMTGRAARWASAKLERSHYLMHNYPAFMMEMKHVFEDPQRREVAKRKIRRLRQGMGSVIDYSNAFQMIAQDLDWNEPALIDQYHEGLSDHIQEELSHLEVAKSLSALIGQCIHIERRLARAAAARKPRSPPRALVLPHIASHHQVDPTEPVGGARMRLTQEEKERRRKLNLCLYCGTGGHYADNCPAKASKSSPAGNSPAPL | soluble |
| STGKAKPKKHTAKELQAKADAALTNRGGGKAGLADRTGKEKGGHAKYECPHCKITVPDLKTMQIHHESKHPKLTYEEPRNLHEALAAPAESSKPKPGIRGSLKK | soluble |
| STNAEAVTVTNKQIIFPDYVTGFPKESDLKITTTTIDLRLPEGSTSVLVKNLYLSCDPYMRICMGKPDPLSSSLVPPYKTGVPIIGLGVSKVIDSGHPDYKKGDLLWGLVGWEEYSVITLTTYSHFKIEHTDVPLSYYTGLLGMPGMTAYAGFYEVCSPKKGETVFVSAASGAVGQLVGQFAKLMGCYVVGSAGSKEKVYLLKTKFGFDDAFNYKEEKDFSAALKRYFPEGIDIYFENVGGKMLDAVLINMKLHGRVAVCGMISQYNLVDPEGVHNLPTILYKRIQLQGFGVCDFYDKYPKFLDFVLPYIREGKITYVEDIAEGFESGPSALLGLFEGKNVGKQLFVVARE | soluble |
| STSCVAEEPIKKIAIFGGTHGNELTGVFLVTHWLKNGAEVHRAGLEVKPFITNPRAVEKCTRYIDCDLNRVFDLENLSKEMSEDLPYEVRRAQEINHLFGPKNSDDAYDVVFDLHNTTSNMGCTLILGDSGNDFLIQMFHYIKTCMAPLPCSVYLIEHPSLKYATTRSIAKYPVGIEVGPQPHGVLRADILDQMRRMLKHALDFIQRFNEGKEFPPCAIDVYKIMEKVDYPRNESGDVAAVIHPNLQDQDWKPLHPGDPVFVSLDGKVIPLGGDCTVYPVFVNEAAYYEKKEAFAKTTKLTLNAKSIRSTLH | soluble |
